This note sets out measurements from the Immune Epitope Database (IEDB).

In test [1] the target is HLA-B*40:01. The experiment in a line: IEDB peptide-MHC binding, purified MHC/competitive/radioactivity; filed as Kd, often an IC50 or EC50 that approximates it; ≥ and ≤ were set here for values at or beyond the usual limits of such assays.
The next test concerns the target HLA-B*44:03. Described as above.
The target in a further test is HLA-B*40:02. The test is described as above.
Another test deals with HLA-B*44:02. Described as above.
The target of test [2] is HLA-B*18:01. The test is described as above.
Another test addresses HLA-B*45:01. Described as above.
The target in another test is HLA-B*15:01. The experiment in a line: IEDB peptide-MHC binding, purified MHC/competitive/fluorescence; filed as Kd, often an IC50 or EC50 that approximates it; ≥ and ≤ were set here for values at or beyond the usual limits of such assays. The conditions noted are these: source organism: Zaire ebolavirus.
The target in the next test is HLA-B*46:01. The description is as above. The conditions noted are these: source organism: Zaire ebolavirus.
The target in the next test is HLA-A*02:01. The description is as above. The conditions noted are these: source organism: Zaire ebolavirus.
The target of a further test is HLA-B*51:01. The description is as above. The conditions noted are these: source organism: Zaire ebolavirus.
The next test deals with HLA-B*27:03. Described as above. As to conditions: source organism: Zaire ebolavirus.
The target in a further test is HLA-A*26:01. The description is as above. The conditions noted are these: source organism: Zaire ebolavirus.
Another test addresses HLA-B*15:17. The test is described as above. As to conditions: source organism: Zaire ebolavirus.
Another test concerns the target HLA-B*57:01. The description is as above. As to conditions: source organism: Zaire ebolavirus.
For a further test, the target named is HLA-B*39:01. The description is as above. As to conditions: source organism: Zaire ebolavirus.
The next test deals with HLA-A*02:16. The experiment in a line: IEDB peptide-MHC binding, purified MHC/direct/fluorescence; filed as Kd, often an IC50 or EC50 that approximates it; ≥ and ≤ were set here for values at or beyond the usual limits of such assays. As to conditions: source organism: Zaire ebolavirus.
Test [3] concerns the target HLA-B*40:01. The description is as above. The conditions noted are these: source organism: Reston ebolavirus - Reston.
The target of another test is HLA-A*29:02. The test is described as above. As to conditions: source organism: Zaire ebolavirus.
For another test, the target named is HLA-A*68:02. The test is described as above. As to conditions: source organism: Zaire ebolavirus.
The target of a further test is HLA-A*02:03. The test is described as above. As to conditions: source organism: Zaire ebolavirus.
For a further test, the target named is HLA-A*02:12. Described as above. As to conditions: source organism: Zaire ebolavirus.
A further test concerns the target HLA-A*24:03. The description is as above. The conditions noted are these: source organism: Zaire ebolavirus.
The next test concerns the target HLA-A*03:01. Described as above. As to conditions: source organism: Zaire ebolavirus.
The target of the next test is HLA-A*02:19. The description is as above. As to conditions: source organism: Zaire ebolavirus.
A further test addresses HLA-A*02:11. The description is as above. As to conditions: source organism: Zaire ebolavirus.
The target in test [4] is HLA-B*18:01. The experiment in a line: IEDB peptide-MHC binding, purified MHC/competitive/fluorescence; filed as Kd, often an IC50 or EC50 that approximates it; ≥ and ≤ were set here for values at or beyond the usual limits of such assays. The conditions noted are these: source organism: Zaire ebolavirus.
The target of a further test is HLA-A*69:01. Described as above. As to conditions: source organism: Zaire ebolavirus.
A further test addresses HLA-A*24:02. The experiment in a line: IEDB peptide-MHC binding, purified MHC/competitive/fluorescence; ≥ and ≤ were set here for values at or beyond the usual limits of such assays. As to conditions: source organism: Sudan ebolavirus.
[5] abbreviates: source organism: SARS coronavirus Tor2.
Setting [6] is: source organism: Lymphocytic choriomeningitis virus (strain Armstrong).
The mark [7] stands for this setting: source organism: Mammarenavirus brazilense.
Setting [8] is: source organism: Mammarenavirus juninense.
The mark [9] stands for this setting: source organism: Mammarenavirus machupoense.
[10] abbreviates: source organism: Lymphocytic choriomeningitis virus (strain WE).

Usually pKd stands for −log10 of the Kd, conventionally taken in molar units. The pIC50 is −log10 of the IC50, conventionally taken in molar units. Read a low pIC50 as a large IC50.

pIC50, pKd: −log10 of the molar value.

As to SEAFEYYHTL, the pKd in the test with HLA-B*40:01 [1] (setting [5]) is 8.93; with HLA-B*44:03 (setting [5]) it was 7.74; with HLA-B*40:02 (setting [5]), 8.18; with HLA-B*44:02 (setting [5]), 7.98; in the test with HLA-B*18:01 [2] (setting [5]) it was 5.67; in the test with HLA-B*45:01 (setting [5]), 7.22.
SFYYIWKSYV: the pKd was 5.94 in the test with HLA-B*40:01 [1] (setting [5]); 6.50 in the test with HLA-B*44:03 (setting [5]); 5.63 with HLA-B*40:02 (setting [5]); 6.38 in the test with HLA-B*44:02 (setting [5]); no more than 4.15 with HLA-B*18:01 [2] (setting [5]); 5.94 in the test with HLA-B*45:01 (setting [5]).
For the sequence SETLLPLTQY, the negative logarithm of the Kd (pKd) with HLA-B*40:01 [1] (setting [5]) was 4.88; with HLA-B*44:03 (setting [5]) it was 7.48; in the test with HLA-B*40:02 (setting [5]), 5.73; with HLA-B*44:02 (setting [5]), 7.28; with HLA-B*18:01 [2] (setting [5]), 7.18; with HLA-B*45:01 (setting [5]), 5.76.
For REAVESCPL, the pKd in the test with HLA-B*40:01 [1] (setting [6]) was 4.95; in the test with HLA-B*44:03 (setting [6]), 4.88; in the test with HLA-B*40:02 (setting [6]), 7.23; with HLA-B*44:02 (setting [6]), 5.23; in the test with HLA-B*18:01 [2] (setting [6]) it was 4.99; with HLA-B*45:01 (setting [6]), no more than 4.22.
AENGELTEI: the pKd in the test with HLA-B*40:01 [1] (setting [7]) is 5.69; with HLA-B*44:03 (setting [7]) it was 6.50; with HLA-B*40:02 (setting [7]), 7.32; in the test with HLA-B*44:02 (setting [7]) it was 6.74; with HLA-B*18:01 [2] (setting [7]), no more than 4.11; with HLA-B*45:01 (setting [7]) it was 7.13.
For the sequence SDTQIPGVC, the pKd was no more than 4.18 with HLA-B*40:01 [1] (setting [8]); no more than 4.11 in the test with HLA-B*44:03 (setting [8]); 4.91 with HLA-B*40:02 (setting [8]); no more than 4.25 with HLA-B*44:02 (setting [8]); no more than 4.11 with HLA-B*18:01 [2] (setting [8]); no more than 4.29 in the test with HLA-B*45:01 (setting [8]).
Regarding EEVLDVCPL, the pKd was 7.15 with HLA-B*40:01 [1] (setting [9]); 5.26 with HLA-B*44:03 (setting [9]); 7.07 in the test with HLA-B*40:02 (setting [9]); 4.86 with HLA-B*44:02 (setting [9]); 6.43 with HLA-B*18:01 [2] (setting [9]); 5.61 with HLA-B*45:01 (setting [9]).
For DEMVCKWLL, the pKd in the test with HLA-B*15:01, in the test with HLA-B*46:01, with HLA-A*02:01, with HLA-B*51:01, with HLA-B*27:03 and in the test with HLA-A*26:01 was no more than 4.70 in each case. Besides, the pKd in the test with HLA-B*15:17 was no more than 4.70; with HLA-B*57:01, no more than 4.70; in the test with HLA-B*39:01, no more than 4.70; in the test with HLA-A*02:16 it was no more than 4.70; with HLA-B*40:01 [3], 6.41; in the test with HLA-A*29:02 it was no more than 4.70. The pKd with HLA-A*68:02, with HLA-A*02:03, with HLA-A*02:12, with HLA-A*24:03, with HLA-A*03:01 and in the test with HLA-A*02:19 was no more than 4.70 in each case. Besides, the pKd with HLA-A*02:11 is no more than 4.70.
For LDVLCPSSL, the pKd is no more than 4.63 with HLA-B*40:01 [1] (setting [10]); no more than 4.11 with HLA-B*44:03 (setting [10]); 6.31 with HLA-B*40:02 (setting [10]); no more than 4.65 with HLA-B*44:02 (setting [10]); no more than 4.11 with HLA-B*18:01 [2] (setting [10]); no more than 4.11 in the test with HLA-B*45:01 (setting [10]).
As for DETKKQVNLM, the pKd with HLA-B*40:01 [1] (setting [8]) is 4.84; in the test with HLA-B*44:03 (setting [8]) it was no more than 4.15; with HLA-B*40:02 (setting [8]) it was no more than 4.15; in the test with HLA-B*44:02 (setting [8]), no more than 4.19; with HLA-B*18:01 [2] (setting [8]), 5.05; with HLA-B*45:01 (setting [8]), no more than 4.48.
Regarding SEVGICLST, the negative logarithm of the Kd (pKd) is 6.62 in the test with HLA-B*40:01 [1] (setting [5]); 7.69 in the test with HLA-B*44:03 (setting [5]); 7.97 in the test with HLA-B*40:02 (setting [5]); 6.92 with HLA-B*44:02 (setting [5]); 5.35 with HLA-B*18:01 [2] (setting [5]); 8.07 with HLA-B*45:01 (setting [5]).
Consider REFVFKNKDG, for which the pKd in the test with HLA-B*40:01 [1] (setting [5]) is 6.81; with HLA-B*44:03 (setting [5]) it was 6.29; with HLA-B*40:02 (setting [5]), 4.94; in the test with HLA-B*44:02 (setting [5]) it was 4.94; with HLA-B*18:01 [2] (setting [5]) it was no more than 4.15; with HLA-B*45:01 (setting [5]), 5.27.
Take FEEAALCTFL: the pKd is 8.70 in the test with HLA-B*40:01 [1] (setting [5]); 7.34 in the test with HLA-B*44:03 (setting [5]); 7.85 in the test with HLA-B*40:02 (setting [5]); 7.02 with HLA-B*44:02 (setting [5]); 6.32 with HLA-B*18:01 [2] (setting [5]); 6.79 in the test with HLA-B*45:01 (setting [5]).
In the case of QEYADVFHLY, the pKd with HLA-B*40:01 [1] (setting [5]) was 6.26; in the test with HLA-B*44:03 (setting [5]), 8.18; with HLA-B*40:02 (setting [5]) it was 6.96; in the test with HLA-B*44:02 (setting [5]), 7.92; with HLA-B*18:01 [2] (setting [5]), 6.83; in the test with HLA-B*45:01 (setting [5]), 6.22.
With EWAENCYNL, the pKd in the test with HLA-B*15:01, with HLA-B*46:01, with HLA-A*02:01, with HLA-B*51:01, in the test with HLA-B*27:03 and with HLA-A*26:01 was no more than 4.70 each time. Further, the pKd in the test with HLA-B*18:01 [4], with HLA-B*15:17, with HLA-A*69:01, with HLA-B*57:01, in the test with HLA-B*39:01 and with HLA-A*02:16 was no more than 4.70 throughout. Further, the pKd in the test with HLA-A*29:02, with HLA-A*68:02, with HLA-A*02:03, with HLA-A*02:12, in the test with HLA-A*24:03 and in the test with HLA-A*03:01 was no more than 4.70 throughout. Also, the pKd with HLA-A*02:19 and in the test with HLA-A*02:11 was no more than 4.70 each time. Moreover, the pIC50 with HLA-A*24:02 was 5.19.
